Data taken from patent US20140004536A1 (PERSEUS PROTEOMICS, published 2014).

Target: T1, human LY6D (human, UniProt Q14210 21-98, GPI anchor)
T1 construct: whole, on cells; On living cells for FCM, cell ELISA and microscopy; Solubilised from biotinylated cells with surfactant (or released by PI-PLC) for immunoprecipitation and western blot; also called E48 antigen
T1 sequence (looked up): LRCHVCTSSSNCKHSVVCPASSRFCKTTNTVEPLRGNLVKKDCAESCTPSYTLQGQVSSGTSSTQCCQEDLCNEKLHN
Test: confocal laser microscopy, cell ELISA and FCM on X-ray-irradiated MCF10A cells; the antigen is identified as LY6D later in the filing
Protocol: X-ray-irradiated cells and non-irradiated cells were prepared, and antibodies specific to the irradiated cells were screened for by cell ELISA. That is, reactivity of antibody to both cells was examined by ELISA. A blocking solution (5% skim milk/0.05% NaN₃/PBS) was added at 200 μL/well to both cells, followed by blocking at 37° C. for 2 hours. The blocking solution was removed and the cells were washed with PBS. The supernatant of the above antibody expression culture was added at 100 μL/well, followed by reaction at 37° C. for 1 hour. The resultant was washed five times with PBS. Rabbit anti-cp3 (1 μg/mL) diluted with PBS/0.05% Tween 20 was added at 100 μL/well, followed by reaction at 37° C. for 1 hour. The resultant was washed five times with PBS. Anti-Rabbit IgG (H+L)-HRP diluted 2000-fold with PBS/0.05% Tween 20 was further added at 100 μL/well, followed by reaction at 37° C. for 1 hour. The resultant was washed five times with PBS. […] Then, the absorbance at 492 nm was measured by SPECTRAmax340PC (Molecular Devices). Antibodies showing obvious positive reactivity specific to only the irradiated cells were selected and DNA sequences of the phages were analyzed.
Selection of clones from the antibody library was carried out as follows. […] The 20 candidates were analyzed by flow cytometry (FCM).

B1: E33-139 monoclonal antibody (scFv)
scFv: MAEVQLVESGGGLVQPGRSLRLSCAASGFTFDDYAMHWVRQAPGKGLEWVSGISWNSGSIGYADSVKGRFTISRDNAKNSLYLQMNSLRAEDTALYYCAKTGILDAFDIWGQGTTVTVSRGGGGSGGGGSGGGGSMAQSVLTQPPSVSGAPRQTVTISCSGSSSNIGQNSVTWYQRLPGEAPKLLIYYDDLLHSGVSDRFSGSKSGTSASLAISGLQSEDEAEYYCASWDDSLKGPVFGGGTKLTVLGQPKAAPSVTLFPPSSEELQANKATLVCLISDFYPGAVTVAWKADSSPVKAGVETTTPSKQSNNKYAASSYLSLTPEQWKSHKSYSCQVTHEGSTVEKTVAPTECSAR
notes: Human phage antibody from the AIMS5 library; No result is reported for the IgG; not shown: clones were tested as scFv-CL fused to cp3 or to the protein A domain (scFv-CL-P)
binding result: binds
